Data published in article PMC4900187.

molecular target: FITC–BID BH3; test: fluorescence polarisation

Sequence of MCL-1ΔNΔC (Q07820 172-327, stated change not applied): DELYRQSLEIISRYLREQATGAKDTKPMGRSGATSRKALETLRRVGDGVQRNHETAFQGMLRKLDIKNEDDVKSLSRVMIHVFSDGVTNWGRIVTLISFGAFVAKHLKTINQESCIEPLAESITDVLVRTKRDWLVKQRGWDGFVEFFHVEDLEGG
Sequence of MAIM1-derivatized MCL-1ΔNΔC (Q07820 172-327, stated change not applied): as above

EC50 [µM]	Substance
0.085	MAIM1-derivatized MCL-1ΔNΔC (from UniProt Q07820 172-327) (domain or fragment)
0.021	MCL-1ΔNΔC (from UniProt Q07820 172-327) (domain or fragment)
0.109	MCL-1ΔNΔC C286W (from UniProt Q07820 172-327) (domain or fragment)
